According to patent US20070087001A1 (CENTER FOR MOLECULAR MEDICINE AND IMMUNOLOGY, published 2007):
Ends that are not written are not given here.

Columns and labels:
[1] = molecular target: T1, Recombinant human placenta growth factor-2 (PlGF-2) (human) (UniProt P49763); assay: cell-based or functional assay
T1 sequence (looked up): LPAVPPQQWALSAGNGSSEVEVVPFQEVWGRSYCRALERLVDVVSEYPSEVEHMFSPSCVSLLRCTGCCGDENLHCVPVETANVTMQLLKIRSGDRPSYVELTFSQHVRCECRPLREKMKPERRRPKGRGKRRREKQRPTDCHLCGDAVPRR

[2] = molecular target: T2, Recombinant human placenta growth factor-2 (PlGF-2) (human, UniProt P49763-3 19-170, limits assumed); assay: cell-based or functional assay
T2 sequence (looked up): T1 sequence (looked up)

[3] = molecular target: T2, Recombinant human placenta growth …; assay: cell-based or functional assay; remark: listed apart in the source
[4] = molecular target: T3, Recombinant human Flt-1 fusion protein (human, UniProt P17948 27-756); assay: ELISA-based binding assay
T3 construct: Bought fusion protein coated on plates at 10 µg/ml; also called VEGFR1; VEGF receptor I
T3 sequence (P17948 27-756): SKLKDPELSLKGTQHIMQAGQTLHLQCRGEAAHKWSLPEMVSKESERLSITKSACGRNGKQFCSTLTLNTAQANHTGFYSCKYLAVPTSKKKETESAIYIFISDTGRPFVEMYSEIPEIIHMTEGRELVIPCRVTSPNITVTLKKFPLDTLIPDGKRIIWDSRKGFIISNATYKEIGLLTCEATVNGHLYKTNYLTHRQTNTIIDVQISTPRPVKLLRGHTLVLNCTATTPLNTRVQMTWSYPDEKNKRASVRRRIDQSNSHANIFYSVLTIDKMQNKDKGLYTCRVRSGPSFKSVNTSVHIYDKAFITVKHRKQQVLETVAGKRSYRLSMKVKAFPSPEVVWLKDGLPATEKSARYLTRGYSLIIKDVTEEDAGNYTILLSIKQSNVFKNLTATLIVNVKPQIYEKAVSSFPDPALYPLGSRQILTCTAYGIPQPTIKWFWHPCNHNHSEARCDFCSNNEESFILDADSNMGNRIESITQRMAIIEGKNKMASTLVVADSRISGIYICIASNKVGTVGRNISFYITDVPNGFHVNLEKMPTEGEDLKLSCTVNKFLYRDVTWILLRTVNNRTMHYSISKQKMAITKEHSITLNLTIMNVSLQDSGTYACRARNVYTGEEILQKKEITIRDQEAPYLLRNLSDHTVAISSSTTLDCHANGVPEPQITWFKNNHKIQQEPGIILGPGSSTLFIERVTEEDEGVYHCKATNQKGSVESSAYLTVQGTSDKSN

[5] = molecular target: T4, Recombinant human VEGF 165 (human, UniProt P15692-4 27-191); assay: ELISA, FLAG-tagged free peptide on VEGF165-coated wells, anti-FLAG detection
T4 construct: Bought protein
T4 sequence (P15692 other isoform, or with tags, fused parts or gaps limits assumed): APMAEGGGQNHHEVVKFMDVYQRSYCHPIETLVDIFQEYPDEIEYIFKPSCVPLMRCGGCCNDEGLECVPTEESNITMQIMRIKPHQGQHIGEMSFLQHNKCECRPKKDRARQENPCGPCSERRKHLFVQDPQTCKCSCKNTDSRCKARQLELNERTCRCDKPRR

[6] = molecular target: T4, Recombinant human VEGF 165; assay: ELISA-based binding assay
[7] = molecular target: T2, Recombinant human placenta growth …; assay: ELISA, free FLAG-tagged peptide on PlGF-coated wells
[8] = molecular target: T3, Recombinant human Flt-1 fusion protein; assay: ELISA, free FLAG-tagged peptide on Flt-1-coated wells
[9] = molecular target: T1, Recombinant human placenta growth factor-2 (PlGF-2) (human); assay: phage ELISA on PlGF-coated plates, anti-M13-HRP detection; phage library background 0.003

For “Human recombinant soluble Flt-1 (sFlt-1) (from UniProt P17948 27-756) (receptor)”, the Block of the stimulatory effect of PlGF on motility, MCF-7 [1] was 67%, the Block of the stimulatory effect of PlGF on motility, MDA-MB-231 [1] was 55% and the Migrating cells (wound-healing assay, MCF-7, PlGF 2 nM + Flt-1 2 nM) (cells/100x field) [1] was 10.4. The Migrating cells (wound-healing assay, MDA-MB-231, PlGF 2 nM + Flt-1 2 nM) (cells/100x field) [1] was 19.1, the Migrating cells (wound-healing assay, MDA-MB-468, PlGF 2 nM + Flt-1 2 nM) (cells/100x field) [1] was 7.8 and the Relative activity (wound-healing assay, MCF-7) (relative to PlGF-only = 100) [1] was 47. For the same molecule, the Relative activity (wound-healing assay, MDA-MB-231) (relative to PlGF-only = 100) [1] was 45 and the Relative activity (wound-healing assay, MDA-MB-468) (relative to PlGF-only = 100) [1] was 53.

B1: Binding Peptide 1 (BP1), synthetic peptide (peptide)
peptide: SHRYRLAIQLHASDSSSSCV
In the case of B1, the “Relative activity (wound-healing assay, MCF-7)” value [2] is reported as 45 relative to PlGF-only = 100, the “Relative activity (wound-healing assay, MDA-MB-231)” value [2] is reported as 32 relative to PlGF-only = 100 and the “Relative activity (wound-healing assay, MDA-MB-468)” value [2] is reported as 97 relative to PlGF-only = 100. The “Average fold-change in invading cells vs untreated (MCF-7, PlGF 0.2 nM + BP1 2 µg/ml)” value [3] was 0.3 fold vs untreated, the “Average fold-change in invading cells vs untreated (MDA-MB-231, PlGF 0.2 nM + BP1 2 µg/ml)” value [3] was 1.3 fold vs untreated and the “Average fold-change in invading cells vs untreated (MDA-MB-468, PlGF 0.2 nM + BP1 2 µg/ml)” value [3] was 0.6 fold vs untreated.

B2: Peptide BP1 (Binding Peptide 1) synthesized with a linker and a C-terminal FLAG epitope (peptide, not shown: small tags and cut ends)
peptide: SHRYRLAIQLHASDSSSSCVDYKDDDDK
modifications: also: linker between peptide and FLAG epitope, sequence not given here
notes: detected by probing for FLAG
Work on B2 yielded a fold over background [4] of 10 fold over background and an A490 [5] of 0.299 A490.

B3: Control peptide CPA (BP1 with A substituted for the H, R and D residues) (peptide)
peptide: SAAYALAIQLAASASSSSCV
In the case of B3, the binding result [6] is reported as “binds”, the “Relative activity (wound-healing assay, MDA-MB-231)” value [2] is reported as 106 relative to PlGF-only = 100 and the “Relative activity (wound-healing assay, MDA-MB-468)” value [2] is reported as 147 relative to PlGF-only = 100. The “Average fold-change in invading cells vs untreated (MCF-7, PlGF 0.2 nM + CPA 2 µg/ml)” value [3] was 1 fold vs untreated, the “Average fold-change in invading cells vs untreated (MDA-MB-231, PlGF 0.2 nM + CPA 2 µg/ml)” value [3] was 4.9 fold vs untreated and the “Average fold-change in invading cells vs untreated (MDA-MB-468, PlGF 0.2 nM + CPA 2 µg/ml)” value [3] was 1.2 fold vs untreated.

B4: Peptide BP4 synthesized with a linker and a C-terminal FLAG epitope (peptide, not shown: small tags and cut ends)
peptide: RMPYSEHSAPLGDYKDDDDK
modifications: also: linker between peptide and FLAG epitope, sequence not given here
B4: no binding (tested: 50 µM) [7]; no binding [8].

B5: Peptide BP3 synthesized with a linker and a C-terminal FLAG epitope (peptide, not shown: small tags and cut ends)
peptide: QEAFNRLTSRMHDYKDDDDK
modifications: also: linker between peptide and FLAG epitope, sequence not given here
B5: no binding (tested: 50 µM) [7]; no binding [8].

B6: Phage BP1 (BP1 peptide displayed on M13 phage) (peptide, not shown: large carriers; small tags and cut ends)
peptide: SHRYRLAIQLHASDSSSSCV
modifications: also: displayed on M13 phage, fused to pIII coat protein, spacer and fusion end not given here
With B6 the absorbance (410 nm) [9] was 0.024 A410.
